Results: PMC9105370, “Human Serine Racemase Weakly Binds the Third PDZ Domain of PSD-95” (International Journal of Molecular Sciences, 2022)

Columns and labels:
[1] = target: Human serine racemase (human) (UniProt Q9GZT4)
[2] = target: Human serine racemase (human) (UniProt Q9GZT4); test: ITC; PSD-95 PDZ3 (600 uM, syringe) titrated into hSR (20 uM, cell); 25 °C, 50 mM HEPES pH 8.0; single-site model
[3] = target: the molecule itself; test: cross-linking; 0.1% (w/v) glutaraldehyde, 10 min, room temperature, 50 mM HEPES pH 8.0; 15 uM hSR and 30 uM PSD-95 PDZ3, together or each alone; SDS-PAGE

Third PDZ domain of postsynaptic density protein 95 (domain or fragment)
hSR activity (beta-elimination of L-serine, LDH-coupled assay), 0.44 uM hSR with 500 uM PSD-95 PDZ3, in the absence of ATP [1]: 22%
Kd [2]: 82 µM

B1: Human serine racemase (enzyme, UniProt Q9GZT4 1-340, looked up)
chain: MCAQYCISFADVEKAHINIRDSIHLTPVLTSSILNQLTGRNLFFKCELFQKTGSFKIRGALNAVRSLVPDALERKPKAVVTHSSGNHGQALTYAAKLEGIPAYIVVPQTAPDCKKLAIQAYGASIVYCEPSDESRENVAKRVTEETEGIMVHPNQEPAVIAGQGTIALEVLNQVPLVDALVVPVGGGGMLAGIAITVKALKPSVKVYAAEPSNADDCYQSKLKGKLMPNLYPPETIADGVKSSIGLNTWPIIRDLVDDIFTVTEDEIKCATQLVWERMKLLIEPTAGVGVAAVLSQHFQTVSPEVKNICIVLSGGNVDLTSSITWVKQAERPASYQSVSV
notes: human serine racemase (EC 5.1.1.18), PLP-dependent homodimer; monomer 38 kDa; also called hSR; SR; source: E. coli BL21 CodonPlus (DE3)-RIL co-expressing GroEL and GroES, purified (TALON resin); not shown: His6, N-terminal, kept
binding result [3]: binds
